Results as given in patent US20040180399A1 (Pfizer, published 2004).

B1: IL-22BP-Ig (Fc fusion)
chain: TQSTHESLKPQRVQFQSRNFHNILQWQPGRALTGNSSVYFVQYKIYGQRQWKNKEDCWGTQELSCDLTSETSDIQEPYYGRVRAASAGSYSEWSMTPRFTPWWETKIDPPVMNITQVNGSLLVILHAPNLPYRYQKEKNVSIEDYYELLYRVFIINNSLEKEQKVYEGAHRAVEIEALTPHSSYCVVAEIYQPMLDRRSQRSEERCVEIP
notes: Used as supernatant of transiently transfected HEK293 cells; it may begin with Met or Met Met; also called IL-TIFR-Ig; IL-22BP fusion protein; not shown: hinge, CH2 and CH3 domains of murine IgG3 isotype heavy chain, amplified from IgG3 anti-TNP hybridoma C3110

Columns and labels:
IL-22BP-Ig = target: B1; assay: ELISA, IL-TIF/IL-22 coated on plate, HEK293 supernatant, anti-Ig peroxidase detection
Method: (§1) Assays were then carried out by coating polystyrene plates with either 0.083 mg/ml of recombinant human IL-TIF/IL-22, or […] bovine serum albumin, in 20 mm Tris. Glycine buffer containing 30 mm NaCl, pH 9.2, overnight, at 4° C. Following washing in PBS buffer plus Tween 20 (10⁻⁴) plates were blocked with PBS plus 1% BSA for two hours, and then 50 μl of supernatant from transiently transfected HEK293 cells was added. Plates were then incubated for 2 hours, at 37° C. Any bound fusion protein was detected, using murine anti-Ig polyclonal antibodies coupled to peroxidase. Detection was carried out using the peroxidase substrate “TMB”, or (3,3′,5, 5′-tetramethylbenzidine), and stopped by 20 μl H₂S0_{4.}

bovine serum albumin = target: T1, bovine serum albumin (bovine, UniProt P02769 25-607); assay: ELISA, coated plate, HEK293 supernatant, anti-Ig peroxidase detection
T1 construct: Negative control coating in the ELISA; also called BSA
Method: as §1

T1 sequence (P02769 25-607 limits assumed): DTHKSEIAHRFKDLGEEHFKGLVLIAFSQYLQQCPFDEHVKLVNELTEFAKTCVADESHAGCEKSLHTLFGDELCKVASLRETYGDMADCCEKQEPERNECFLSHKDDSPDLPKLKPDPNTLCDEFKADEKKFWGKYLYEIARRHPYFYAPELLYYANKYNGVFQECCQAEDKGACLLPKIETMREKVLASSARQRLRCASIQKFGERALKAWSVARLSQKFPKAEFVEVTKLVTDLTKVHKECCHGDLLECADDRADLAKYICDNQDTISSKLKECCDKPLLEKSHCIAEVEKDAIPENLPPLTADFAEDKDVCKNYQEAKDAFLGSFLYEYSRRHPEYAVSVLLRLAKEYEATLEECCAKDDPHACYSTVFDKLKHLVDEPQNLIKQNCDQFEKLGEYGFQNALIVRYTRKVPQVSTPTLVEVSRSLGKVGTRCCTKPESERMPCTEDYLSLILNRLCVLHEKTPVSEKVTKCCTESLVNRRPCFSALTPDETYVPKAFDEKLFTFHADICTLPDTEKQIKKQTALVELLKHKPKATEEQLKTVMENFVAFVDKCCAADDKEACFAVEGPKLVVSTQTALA

| binding result (IL-22BP-Ig) | binding result (bovine serum albumin) | Binder |
| --- | --- | --- |
| binds | – | recombinant human IL-TIF/IL-22 (ligand, UniProt Q9GZX6 34-179, looked up) APISSHCRLDKSNFQQPYITNRTFMLAKEASLADNNTDVRLIGEKLFHGVSMSERCYLMKQVLNFTLEEVLFPQSDRFQPYMQEVVPFLARLSNRLSTCHIEGDDLHIQRNVQKLKDTVKKLGESGEIKAIGELDLLFMSLRNACI |
| – | no binding | B1 |
| – | no binding | IL-22R-Ig (Fc fusion, UniProt Q8N6P7 16-228, looked up, Used as supernatant of transiently transfected HEK293 cells; also called fusion protein of IL-22R and the IgG3 Fc fragment; not shown: IgG3 Fc fragment, made 'in similar fashion' to the murine IgG3 hinge-CH2-CH3 of IL-TIFR-Ig) HAPEDPSDLLQHVKFQSSNFENILTWDSGPEGTPDTVYSIEYKTYGERDWVAKKGCQRITRKSCNLTVETGNLTELYYARVTAVSAGGRSATKMTDRFSSLQHTTLKPPDVTCISKVRSIQMIVHPTPTPIRAGDGHRLTLEDIFHDLFYHLELQVNRTYQMHLGGKQREYEFFGLTPDTEFLGTIMICVPTWAKESAPYMCRVKTLPDRTWT |
